Assay [1] concerns the target HisEhC2B121 (E. histolytica). As to the kind of experiment: ITC. (Isothermal titration calorimetry measures the heat released or taken up as one component is titrated into another.)
Assay [2] concerns the target T1, MBPEhC2BHis (E. histolytica, UniProt C4M344 1-208).
T1 construct: also called EhC2B full-length; not shown: MBP, N-terminal, kept; His-tag, C-terminal, kept
T1 sequence: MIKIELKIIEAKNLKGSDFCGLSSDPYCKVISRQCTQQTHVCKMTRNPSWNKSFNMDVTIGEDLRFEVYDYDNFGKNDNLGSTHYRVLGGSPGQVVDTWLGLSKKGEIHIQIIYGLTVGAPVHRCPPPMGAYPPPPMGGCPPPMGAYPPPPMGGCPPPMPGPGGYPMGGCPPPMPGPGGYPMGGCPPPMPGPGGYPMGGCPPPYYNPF
As to the kind of experiment: ITC. To be noted: both partners purified.

By stoichiometry N is commonly meant the number of molecules, sites or subunits per partner or assembly.

B1: GSTEhRab21 (enzyme)
chain: MENEFKVVLLGEGKVGKTSMILRYTQNFFTPEEGPRTTQASYVSKTLNIDKNDYIINIWDTAGQEKYQALTPIYYRDSQGAILVYDITEPRSFQRVQTEVDNIRDMLGDSCCIVIVGNKMDLVQQRKISKEEADKYAESVKAIHYLCSCATGDGISDVFEGLTKQMVDKRKSLGDDELFDRKKSTLVFQDDKNNTRQAKSDCC
notes: also called GppNHp-GSTEhRab21; GDP-GSTEhRab21; source: recombinant, purified
In assay [1], B1 returned a Ka of 9.6e+06 M⁻¹, a dH of -65.1 kJ/mol and a stoichiometry N of 1. Besides, in assay [2], the Ka amounted to 1.24e+07 M⁻¹, the dH is -38.6 kJ/mol and the “stoichiometry N” value was 1.
